Measurements reported in patent publication US20250290037.

B1: secreted Neprilysin (lacks transmembrane and cytoplasmic domains; secretion signal at N-terminus) (protein)
chain: YDDGICKSSDCIKSAARLIQNMDATTEPCTDFFKYACGGWLKRNVIPETSSRYGNFDILRDELEVVLKDVLQEPKTEDIVAVQKAKALYRSCINESAIDSRGGEPLLKLLPDIYGWPVATENWEQKYGASWTAEKAIAQLNSKYGKKVLINLFVGTDDKNSVNHVIHIDQPRLGLPSRDYYECTGIYKEACTAYVDFMISVARLIRQEERLPIDENQLALEMNKVMELEKEIANATAKPEDRNDPMLLYNKMTLAQIQNNFSLEINGKPFSWLNFTNEIMSTVNISITNEEDVVVYAPEYLTKLKPILTKYSARDLQNLMSWRFIMDLVSSLSRTYKESRNAFRKALYGTTSETATWRRCANYVNGNMENAVGRLYVEAAFAGESKHVVEDLIAQIREVFIQTLDDLTWMDAETKKRAEEKALAIKERIGYPDDIVSNDNKLNNEYLELNYKEDEYFENIIQNLKFSQSKQLKKLREKVDKDEWISGAAVVNAFYSSGRNQIVFPAGILQPPFFSAQQSNSLNYGGIGMVIGHEITHGFDDNGRNFNKDGDLVDWWTQQSASNFKEQSQCMVYQYGNFSWDLAGGQHLNGINTLGENIADNGGLGQAYRAYQNYIKKNGEEKLLPGLDLNHKQLFFLNFAQVWCGTYRPEYAVNSIKTDVHSPGNFRIIGTLQNSAEFSEAFHCRKNSYMNPEKKCRVW
B2: membrane-bound Neprilysin (full-length Neprilysin; includes transmembrane and cytoplasmic domains) (protein)
chain: GKSESQMDITDINTPKPKKKQRWTPLEISLSVLVLLLTIIAVTMIALYATYDDGICKSSDCIKSAARLIQNMDATTEPCTDFFKYACGGWLKRNVIPETSSRYGNFDILRDELEVVLKDVLQEPKTEDIVAVQKAKALYRSCINESAIDSRGGEPLLKLLPDIYGWPVATENWEQKYGASWTAEKAIAQLNSKYGKKVLINLFVGTDDKNSVNHVIHIDQPRLGLPSRDYYECTGIYKEACTAYVDFMISVARLIRQEERLPIDENQLALEMNKVMELEKEIANATAKPEDRNDPMLLYNKMTLAQIQNNFSLEINGKPFSWLNFTNEIMSTVNISITNEEDVVVYAPEYLTKLKPILTKYSARDLQNLMSWRFIMDLVSSLSRTYKESRNAFRKALYGTTSETATWRRCANYVNGNMENAVGRLYVEAAFAGESKHVVEDLIAQIREVFIQTLDDLTWMDAETKKRAEEKALAIKERIGYPDDIVSNDNKLNNEYLELNYKEDEYFENIIQNLKFSQSKQLKKLREKVDKDEWISGAAVVNAFYSSGRNQIVFPAGILQPPFFSAQQSNSLNYGGIGMVIGHEITHGFDDNGRNFNKDGDLVDWWTQQSASNFKEQSQCMVYQYGNFSWDLAGGQHLNGINTLGENIADNGGLGQAYRAYQNYIKKNGEEKLLPGLDLNHKQLFFLNFAQVWCGTYRPEYAVNSIKTDVHSPGNFRIIGTLQNSAEFSEAFHCRKNSYMNPEKKCRVW

Target: 488-labeled fibrillized-Aβ (1-42) (Anaspec), P05067
Sequence (P05067 whole entry, looked up, tested part not stated): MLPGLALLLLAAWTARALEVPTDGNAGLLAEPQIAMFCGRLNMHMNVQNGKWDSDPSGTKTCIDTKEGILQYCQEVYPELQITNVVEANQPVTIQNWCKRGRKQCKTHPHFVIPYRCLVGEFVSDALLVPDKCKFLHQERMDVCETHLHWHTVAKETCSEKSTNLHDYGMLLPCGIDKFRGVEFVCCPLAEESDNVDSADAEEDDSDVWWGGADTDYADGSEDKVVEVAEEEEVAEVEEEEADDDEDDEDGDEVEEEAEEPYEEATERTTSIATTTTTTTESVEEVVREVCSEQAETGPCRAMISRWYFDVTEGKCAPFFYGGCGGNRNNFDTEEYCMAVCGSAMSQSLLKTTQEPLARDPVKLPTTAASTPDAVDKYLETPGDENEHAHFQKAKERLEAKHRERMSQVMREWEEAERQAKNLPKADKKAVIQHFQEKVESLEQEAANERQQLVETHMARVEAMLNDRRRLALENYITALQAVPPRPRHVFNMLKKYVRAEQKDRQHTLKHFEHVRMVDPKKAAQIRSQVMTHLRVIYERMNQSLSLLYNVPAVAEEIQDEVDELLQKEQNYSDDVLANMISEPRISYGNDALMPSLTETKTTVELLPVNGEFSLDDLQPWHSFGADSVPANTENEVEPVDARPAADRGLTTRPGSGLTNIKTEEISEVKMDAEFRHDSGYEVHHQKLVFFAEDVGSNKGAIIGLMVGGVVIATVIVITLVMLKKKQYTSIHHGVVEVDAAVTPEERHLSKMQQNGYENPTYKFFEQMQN

Protein | Aβ phagocytosis over time (slope of internalized fluorescent Aβ signal)
B1 | Decreasing slope over time, as observed in sNEP and NEP data, indicates increasing degradation of Aβ following internalization
B2 | Decreasing slope over time, as observed in sNEP and NEP data, indicates increasing degradation of Aβ following internalization
